In publication PMC3828196 (PLoS ONE, 2013):
“And” between values parts separate entries of the source, which are not always exact repeats. Equal values may be shown once. “Also recorded” adds a separate entry of the source. Read-outs that look alike come from different tables or passages of the source.

Experiments:
Cys30 [1] = biological target: T1, Cys30 (UniProt position 49, FFSFYCPHCYQ); experiment: UV-vis; conditions: 22 °C; 200 mM KCl plus buffer salts (total ionic strength not stated); 10 mM Tris, 10 mM sodium citrate, 10 mM K2HPO4, 10 mM KH2PO4, 200 mM KCl, 1 mM EDTA; Reduced KpDsbA (40 μM), with oxidised KpDsbA as reference
Cys30 [2] = biological target: Cys30 (UniProt position 49, FFSFYCPHCNT); conditions: not stated; cited from earlier work
[3] = biological target: Klebsiella pneumoniae DsbA (K. pneumoniae); experiment: ITC; peptide (3 mM) titrated into 100 μM DsbA in the cell; 25 mM HEPES, 50 mM NaCl, pH 7.4, DMSO 0.8 %; 25 °C by the methods (20 °C by the footnote of Table 4); single-site binding model; apparent Kd; triplicate
Cys30 [4] = biological target: T1, Cys30; conditions: not stated; cited from earlier work
Cys30 [5] = biological target: Cys30 (UniProt position 49, FFSFFCPHCYQ); conditions: not stated; cited from earlier work
KpDsbA = experiment: ITC binding of DsbB-derived peptides to KpDsbA; set-up: species or system K. pneumoniae
Method: Amidation and acetylation ensure that there are no charges on the peptide termini, as these are not present in the native DsbB loop sequence. Binding affinity was measured using a MicroCal™ Auto-iTC200 from (GE Healthcare, USA) at 25 °C. The sample cell was loaded with 200 μL of 100 μM KpDsbA or EcDsbA in 25 mM HEPES, 50 mM NaCl, pH 7.4, and DMSO 0.8 %. The peptide (3 mM) diluted in the same buffer was titrated with an initial injection of 0.5 μL into DsbA, followed by 19 consecutive injections (2.0 μL) offset by 180 s, while the solution was constantly stirred (1000 rpm). Data were fitted to a single-site binding model using MicroCal™ Origin 7.0 software (Origin 7 SR4 v7.0552). Experiments were conducted in triplicate and affinity and thermodynamic parameters are reported as means and standard deviations (Table 4).

insulin [6] = experiment: Insulin disulfide reductase activity; type: biochemical; conditions: 10 μM enzyme, 0.33 mM DTT, 2 mM EDTA, 100 mM phosphate pH 7.0, 0.131 mM insulin; OD650nm turbidity; three repeats
Method: Under mild reducing conditions, DsbA proteins can reduce the intermolecular disulfide bonds formed between insulin chains A and B [3]. The rate of disulfide bond reduction can be spectroscopically followed at OD650nm by an increase in turbidity resulting from production of the insoluble insulin chain B [20]. Samples were prepared in 1 cm cuvettes containing 10 μM of protein (KpDsbA, EcDsbA or EcDsbC), 0.33 mM DTT and 2 mM EDTA in 100 mM NaH2PO4 / Na2HPO4 titrated to pH 7.0. Catalysis was initiated by the addition of 0.131 mM insulin (I0516, Sigma-Aldrich, Australia) to the sample mixture. The assay was repeated three times and data were plotted showing standard deviations.

Escherichia coli DsbA = biological target: T2, Escherichia coli DsbA (E. coli, UniProt P0AEG4 20-208); experiment: ITC; peptide (3 mM) titrated into 100 μM DsbA in the cell; 25 mM HEPES, 50 mM NaCl, pH 7.4, DMSO 0.8 %; 25 °C by the methods (20 °C by the footnote of Table 4); single-site binding model; apparent Kd; triplicate; conditions: both partners purified
T2 construct: also called EcDsbA; E. coli DsbA; source: purified as described for KpDsbA (BL21(DE3)pLys, Talon resin, TEV protease, Superdex75)
T2 sequence (looked up): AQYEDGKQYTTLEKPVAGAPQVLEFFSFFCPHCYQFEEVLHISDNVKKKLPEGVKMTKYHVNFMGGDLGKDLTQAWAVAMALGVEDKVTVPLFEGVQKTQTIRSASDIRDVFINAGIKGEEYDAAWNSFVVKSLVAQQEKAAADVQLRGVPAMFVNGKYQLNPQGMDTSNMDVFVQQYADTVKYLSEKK

[7] = In vitro peptide dithiol oxidation (europium fluorescence); type: biochemical; conditions: pH 5.5
Method: A peptide ([…]) with a 1,4,7,10-tetraazacyclododecane-1,4,7,10-tetraacetic acid (DOTA) group amide-coupled to the N-terminus, and a methylcoumarin amide-coupled to the ε-amino group of the C-terminal lysine, was purchased from AnaSpec (Fremont, CA). Lyophilized peptide was re-suspended in 100 mM imidazole, pH 6, at a concentration of 2 mM. Europium trifluoromethanesulfonate (Sigma Aldrich, Australia) solution (100 mM) was added to the peptide at a molar ratio of 2:1 and incubated for 5 min at room temperature, to allow europium chelation. The peptide solution was then immediately aliquoted, flash frozen in liquid nitrogen and stored at -80°C. An increase in fluorescence occurs upon oxidation of the peptide cysteines to form a disulfide. Thus, fluorescence can be used to monitor the capacity of DsbA enzymes to catalyse dithiol oxidation.
Assays were conducted using a Synergy H1 multimode plate reader (BioTek, USA) with the excitation wavelength set to 340 nm and emission to 615 nm. A 150 μs delay before reading and 100 μs reading time were used for time-resolved fluorescence. The assay was performed in a white 384-well plate (Perkin Elmer OptiPlate-384, Part #: 6007290). The buffer consisted of 50 mM MES, 50 mM NaCl and 2 mM EDTA at pH 5.5. The reaction consisted of a 50 μL solution in each well, containing 160 nM EcDsbA, KpDsbA or SeDsbA, 1.6 μM EcDsbB (crude membrane extracts, containing ubiquinone) and 8 μM peptide substrate added last to initiate the reaction. Samples containing buffer and DsbA or buffer and peptide were used as controls. Data were measured for three replicates and are presented as mean values, with the standard error of the mean indicated by error bars.

[8] = Temperature-induced unfolding by far-UV CD; type: physicochemical
Method: Temperature-induced unfolding of native SeDsbA and KpDsbA was determined as described previously using a Jasco J-810 circular dichroism (CD) spectropolarimeter (Jasco, USA). The redox state of the protein was confirmed using Ellman’s reagent. The largest difference in molar ellipticity for oxidized or reduced enzymes was calculated from initial far-UV CD spectra (from 250 nm to 190 nm) recorded at 25 °C and 95 °C, respectively. The unfolding of oxidized and reduced protein (SeDsbAox = 220 nm, SeDsbAred = 220.5 nm and KpDsbAox = 211 nm, KpDsbAred = 209.5 nm) was monitored at a heat rate of 1 K / min from 298 K to 368 K in a 1 mm quartz cuvette. All measurements were carried out with 10 µM protein in 100 mM NaH2PO4 / Na2HPO4, 1 mM EDTA at pH 7.0. Samples for measurement of reduced enzyme contained 0.75 mM DTT. Raw data were analyzed in Prism and fitted to a two-state unfolding model as described previously. The standard deviation was measured from three replicates.

[9] = SeDsbA, cited from earlier work
Source text: The past 5 years has seen the characterization of DsbA enzymes from many other bacteria including DsbAs with varying degrees of sequence identity to EcDsbA such as Neisseria meningitidis DsbA1 (NmDsbA1, 23% identity), Pseudomonas aerugin ... || EcDsbA and SeDsbA share 86 % sequence identity and both have been characterized previously. […] Both are similarly oxidizing enzymes: the redox potentials of EcDsbA and SeDsbA are -122 and -126 mV, respectively, whereas the range for all DsbAs is -80 to -163 mV (Table 1 ). In b ... || (+ 1 further places)

insulin [10] = conditions: cited from earlier work
[11] = tested on: E. coli dsbA- null (JCB817); conditions: SeDsbA, null mutant motility assay; ref [44]; cited from earlier work

DsbA (thiol:disulfide interchange protein DsbA), KpDsbA (Klebsiella pneumoniae (strain 342))
pKa (Cys30 [1]): 3.2

DsbA (VcDsbA, TcpG) (Vibrio cholerae)
pKa (Cys30 [2]): 5.1

EcDsbB P2 loop peptide PSPFATCD
Kd [3]: 17.9 µM
dH [3]: -9.5 kcal/mol
stoichiometry N [3]: 0.93

DsbA (SeDsbA) (Salmonella enterica serovar Typhimurium (strain SL1344))
pKa (Cys30 [4]): 3.3

DsbA (EcDsbA) (Escherichia coli (K-12))
pKa (Cys30 [5]): 3.3

KpDsbB P2 loop peptide PSPFQTCD
Kd [3]: 16.7 µM
dH [3]: -11.1 kcal/mol
stoichiometry N [3]: 0.97

CC(=O)N1CCC[C@H]1C(=O)N[C@@H](CO)C(=O)N1CCC[C@H]1C(=O)N[C@@H](Cc1ccccc1)C(=O)N[C@@H](C)C(=O)N[C@H](C(=O)N[C@@H](CS)C(=O)N[C@@H](CC(=O)O)C(N)=O)[C@@H](C)O
Kd (KpDsbA; ITC (Auto-iTC200), cell 100 μM KpDsbA, peptide 3 mM, 25 mM HEPES, 50 mM NaCl, pH 7.4, DMSO 0.8 %, 25 °C in method, 20 °C in table footnote, single-site model, apparent Kd, mean ± SD, three independent experiments, read-out: Kd): 17.9 ± 1.5 µM
Kd (KpDsbA; ITC, range stated for KpDsbA and EcDsbA with PSPFATCD and PSPFQTCD together, read-out: Kd (range over both peptides and both DsbAs)): 11 to 18 µM

B1: EcDsbC: E. coli disulfide isomerase DsbC (AAA83074) (protein, UniProt P0AEG6 21-236, looked up)
Thiol:disulfide interchange …: DDAAIQQTLAKMGIKSSDIQPAPVAGMKTVLTNSGVLYITDDGKHIIQGPMYDVSGTAPVNVTNKMLLKQLNALEKEMIVYKAPQEKHVITVFTDITCGYCHKLHEQMADYNALGITVRYLAFPRQGLDSDAEKEMKAIWCAKDKNKAFDDVMAGKSVAPASCDVDIADHYALGVQLGVSGTPAVVLSNGTLVPGYQPPKEMKEFLDEHQKMTSGK
insulin disulfide reductase activity (insulin [6]): highly active

B2: KpDsbB P2 loop peptide PSPFQTCD (peptide)
peptide: Ac-PSPFQTCD-NH2
notes: P2 loop of K. pneumoniae DsbB; source: synthetic peptide
Kd (Escherichia coli DsbA): 10.9 µM

B3: SeDsbA: S. enterica Typhimurium DsbA (AAB81592) (protein)
chain: AQISDGKQYITLDKPVAGEPQVLEFFSFYCPHCYQFEEVLHVSDNVKKKLPEGTKMTKYHVEFLGPLGKELTQAWAVAMALGVEDKVTVPLFEAVQKTQTVQSAADIRKVFVDAGVKGEDYDAAWNSFVVKSLVAQQEKAAADLQLQGVPAMFVNGKYQINPQGMDTSSMDVFVQQYADTVKYLVDKK
modifications: left off: His6 (inferred: purified as described for KpDsbA), N-terminal, cleaved
dithiol oxidation signal without EcDsbB ([7]; samples lacking EcDsbB, DsbA plus peptide, time-resolved fluorescence): no increase in signal
rate of catalyzed disulfide bond formation ([7]; with EcDsbB, 160 nM DsbA, 1.6 μM EcDsbB membrane extract, 8 μM peptide, 50 mM MES, 50 mM NaCl, 2 mM EDTA, time-resolved fluorescence 340/615 nm, three replicates): almost indistinguishable from that of EcDsbA
Tm reduced ([8]; 10 µM protein, 100 mM phosphate, 1 mM EDTA, pH 7.0, 0.75 mM DTT, 1 K/min 298-368 K, SeDsbA 220.5 nm, KpDsbA 209.5 nm, two-state fit, SD from three replicates): 351 K and 351.2 ± 0.2 K and 351.2 +/- 0.2 K
Tm oxidized ([8]; 10 µM protein, 100 mM phosphate, 1 mM EDTA, pH 7.0, 1 K/min 298-368 K, SeDsbA 220 nm, KpDsbA 211 nm, two-state fit, SD from three replicates): 342.8 ± 0.4 K and 342.8 +/- 0.4 K and 343 K
stabilisation of reduced over oxidized form ([8]; SeDsbA, difference of melting temperatures): 9 K
E°’ (redox potential) ([9]; Table 1, ref [43] and [14]): -126 mV
pKa “Cys30” ([9]; Table 1 and comparison, ref [43] and [14]): 3.3
pKa of nucleophilic cysteine ([9]; ref [43]): 3.3
redox potential ([9]; ref [43]): -126 mV
insulin reductase activity (insulin [10]): weak disulfide reductants; also recorded: weak insulin reductase activity
complementation of EcDsbA, motility [11]: can complement EcDsbA; also recorded: can fully restore the motility of dsbA ^- deficient strains
